Patent publication US20160200791A1 (Novo Nordisk, published 2016)
Numbered stars: 1 amine (or outer) side, 2 acyl side, 3 side chain; on linkers, the order of the positions; unused ones are H or OH. Square brackets hold non-standard residues; d marks the D form. Side chains are listed from the residue outwards. Ends that are not written are not given here. * marks the point of attachment. Hexadecanoyl(16-SO3H) = O=C(CCCCCCCCCCCCCCCS(=O)(=O)O)*; C20 diacid = O=C(O)CCCCCCCCCCCCCCCCCCC(=O)*; C18 diacid = O=C(O)CCCCCCCCCCCCCCCCC(=O)*; γGlu = O=C(O)[C@H](CCC(=O)[*:2])N[*:1]; εLys = N[C@@H](CCCCN[*:1])C(=O)[*:2]; Cya = N[C@@H](CS(=O)(=O)O)C(=O)O; Trx = NC[C@H]1CC[C@H](C(=O)O)CC1; AEEA = NCCOCCOCC(=O)O; Aib = CC(C)(N)C(=O)O; Ahx = NCCCCCC(=O)O; GABA = NCCCC(=O)O

B1: GLP-1 derivative of Example 4: N{Epsilon-18}, N{Epsilon-22}, N{Epsilon-30}-triacylated [Aib8,Lys18,Lys22,Arg26,Lys30,Arg34]-GLP-1-(7-37)-peptide (peptide)
peptide: H[Aib]EGTFTSDVSK([AEEA-AEEA-Cya-Trx-Hexadecanoyl(16-SO3H)])YLEK([AEEA-AEEA-Cya-Trx-Hexadecanoyl(16-SO3H)])QAAREFIK([AEEA-AEEA-Cya-Trx-Hexadecanoyl(16-SO3H)])WLVRGRG
notes: Full chemical name printed at h-0058 (it prints 'Lys8' where Lys18 is meant)
B2: GLP-1 derivative of Example 21: N{Epsilon-18}, N{Epsilon-22}, N{Epsilon-30}-triacylated [Aib8,Lys18,Lys22,Arg26,Lys30,Arg34]-GLP-1-(7-37)-peptide (peptide)
peptide: H[Aib]EGTFTSDVSK([AEEA-AEEA-AEEA-AEEA-AEEA-εLys-εLys-GABA-Hexadecanoyl(16-SO3H)])YLEK([AEEA-AEEA-AEEA-AEEA-AEEA-εLys-εLys-GABA-Hexadecanoyl(16-SO3H)])QAAREFIK([AEEA-AEEA-AEEA-AEEA-AEEA-εLys-εLys-GABA-Hexadecanoyl(16-SO3H)])WLVRGRG
notes: Full chemical name printed at h-0092
B3: GLP-1 derivative of Example 2: N{Epsilon-18}, N{Epsilon-22}, N{Epsilon-30}-triacylated [Aib8,Lys18,Lys22,Arg26,Lys30,Arg34]-GLP-1-(7-37)-peptide (peptide)
peptide: H[Aib]EGTFTSDVSK([AEEA-AEEA-Cya-Hexadecanoyl(16-SO3H)])YLEK([AEEA-AEEA-Cya-Hexadecanoyl(16-SO3H)])QAAREFIK([AEEA-AEEA-Cya-Hexadecanoyl(16-SO3H)])WLVRGRG
notes: Full chemical name printed at h-0054
B4: GLP-1 derivative of Example 14: N{Epsilon-18}, N{Epsilon-22}, N{Epsilon-30}-triacylated [Aib8,Lys18,Lys22,Arg26,Lys30,Arg34]-GLP-1-(7-37)-peptide (peptide)
peptide: H[Aib]EGTFTSDVSK([AEEA-AEEA-εLys-εLys-Hexadecanoyl(16-SO3H)])YLEK([AEEA-AEEA-εLys-εLys-Hexadecanoyl(16-SO3H)])QAAREFIK([AEEA-AEEA-εLys-εLys-Hexadecanoyl(16-SO3H)])WLVRGRG
notes: Full chemical name printed at h-0078
B5: GLP-1 derivative of Example 1: N{Epsilon-18}, N{Epsilon-22}, N{Epsilon-30}-triacylated [Aib8,Lys18,Lys22,Arg26,Lys30,Arg34]-GLP-1-(7-37)-peptide (peptide)
peptide: H[Aib]EGTFTSDVSK([AEEA-AEEA-γGlu-Trx-Hexadecanoyl(16-SO3H)])YLEK([AEEA-AEEA-γGlu-Trx-Hexadecanoyl(16-SO3H)])QAAREFIK([AEEA-AEEA-γGlu-Trx-Hexadecanoyl(16-SO3H)])WLVRGRG
notes: Full chemical name printed at h-0052
B6: GLP-1 derivative of Example 18: N{Epsilon-18}, N{Epsilon-22}, N{Epsilon-30}-triacylated [Aib8,Lys18,Lys22,Arg26,Lys30,Arg34]-GLP-1-(7-37)-peptide (peptide)
peptide: H[Aib]EGTFTSDVSK([AEEA-AEEA-AEEA-AEEA-εLys-εLys-GABA-Hexadecanoyl(16-SO3H)])YLEK([AEEA-AEEA-AEEA-AEEA-εLys-εLys-GABA-Hexadecanoyl(16-SO3H)])QAAREFIK([AEEA-AEEA-AEEA-AEEA-εLys-εLys-GABA-Hexadecanoyl(16-SO3H)])WLVRGRG
notes: Full chemical name printed at h-0086
B7: GLP-1 derivative of Example 17: N{Epsilon-18}, N{Epsilon-22}, N{Epsilon-30}-triacylated [Aib8,Lys18,Lys22,Arg26,Lys30,Arg34]-GLP-1-(7-37)-peptide (peptide)
peptide: H[Aib]EGTFTSDVSK([AEEA-AEEA-AEEA-AEEA-AEEA-εLys-εLys-εLys-C18 diacid])YLEK([AEEA-AEEA-AEEA-AEEA-AEEA-εLys-εLys-εLys-C18 diacid])QAAREFIK([AEEA-AEEA-AEEA-AEEA-AEEA-εLys-εLys-εLys-C18 diacid])WLVRGRG
notes: Full chemical name printed at h-0084
B8: GLP-1 derivative of Example 19: N{Epsilon-18}, N{Epsilon-22}, N{Epsilon-30}-triacylated [Aib8,Lys18,Lys22,Arg26,Lys30,Arg34]-GLP-1-(7-37)-peptide (peptide)
peptide: H[Aib]EGTFTSDVSK([AEEA-AEEA-AEEA-AEEA-εLys-εLys-Ahx-Hexadecanoyl(16-SO3H)])YLEK([AEEA-AEEA-AEEA-AEEA-εLys-εLys-Ahx-Hexadecanoyl(16-SO3H)])QAAREFIK([AEEA-AEEA-AEEA-AEEA-εLys-εLys-Ahx-Hexadecanoyl(16-SO3H)])WLVRGRG
notes: Full chemical name printed at h-0088; the printed name is uneven in the number of OEG units for the side chains at 18 and 22 (four opened, three closed)
B9: GLP-1 derivative of Example 13: N{Epsilon-18}, N{Epsilon-22}, N{Epsilon-30}-triacylated [Aib8,Lys18,Lys22,Arg26,Lys30,Arg34]-GLP-1-(7-37)-peptide (peptide)
peptide: H[Aib]EGTFTSDVSK([AEEA-AEEA-εLys-Hexadecanoyl(16-SO3H)])YLEK([AEEA-AEEA-εLys-Hexadecanoyl(16-SO3H)])QAAREFIK([AEEA-AEEA-εLys-Hexadecanoyl(16-SO3H)])WLVRGRG
notes: Full chemical name printed at h-0076
B10: GLP-1 derivative of Example 7: N{Epsilon-18}, N{Epsilon-27}, N{Epsilon-37}-triacylated [Aib8,Lys18,Glu22,Arg26,Lys27,Arg34,Lys37]-GLP-1-(7-37)-peptide (peptide)
peptide: H[Aib]EGTFTSDVSK([AEEA-γGlu-AEEA-C18 diacid])YLEEQAARK([AEEA-γGlu-AEEA-C18 diacid])FIAWLVRGRK([AEEA-γGlu-AEEA-C18 diacid])
notes: Full chemical name printed at h-0064
B11: GLP-1 derivative of Example 15: N{Epsilon-18}, N{Epsilon-22}, N{Epsilon-30}-triacylated [Aib8,Lys18,Lys22,Arg26,Lys30,Arg34]-GLP-1-(7-37)-peptide (peptide)
peptide: H[Aib]EGTFTSDVSK([AEEA-AEEA-AEEA-AEEA-AEEA-εLys-εLys-C20 diacid])YLEK([AEEA-AEEA-AEEA-AEEA-AEEA-εLys-εLys-C20 diacid])QAAREFIK([AEEA-AEEA-AEEA-AEEA-AEEA-εLys-εLys-C20 diacid])WLVRGRG
notes: Full chemical name printed at h-0080
B12: GLP-1 derivative of Example 6: N{Epsilon-18}, N{Epsilon-27}, N{Epsilon-37}-triacylated [Aib8,Lys18,Glu22,Arg26,Lys27,Arg34,Lys37]-GLP-1-(7-37)-peptide (peptide)
peptide: H[Aib]EGTFTSDVSK([εLys-AEEA-AEEA-γGlu-C18 diacid])YLEEQAARK([εLys-AEEA-AEEA-γGlu-C18 diacid])FIAWLVRGRK([εLys-AEEA-AEEA-γGlu-C18 diacid])
notes: Full chemical name printed at h-0062 (it prints 'Lys8' where Lys18 is meant)
B13: GLP-1 derivative of Example 16: N{Epsilon-18}, N{Epsilon-22}, N{Epsilon-30}-triacylated [Aib8,Lys18,Lys22,Arg26,Lys30,Arg34]-GLP-1-(7-37)-peptide (peptide)
peptide: H[Aib]EGTFTSDVSK([AEEA-AEEA-AEEA-AEEA-AEEA-εLys-εLys-C18 diacid])YLEK([AEEA-AEEA-AEEA-AEEA-AEEA-εLys-εLys-C18 diacid])QAAREFIK([AEEA-AEEA-AEEA-AEEA-AEEA-εLys-εLys-C18 diacid])WLVRGRG
notes: Full chemical name printed at h-0082
B14: GLP-1 derivative of Example 20: N{Epsilon-18}, N{Epsilon-22}, N{Epsilon-30}-triacylated [Aib8,Lys18,Lys22,Arg26,Lys30,Arg34]-GLP-1-(7-37)-peptide (peptide)
peptide: H[Aib]EGTFTSDVSK([AEEA-AEEA-AEEA-AEEA-AEEA-εLys-εLys-Ahx-Hexadecanoyl(16-SO3H)])YLEK([AEEA-AEEA-AEEA-AEEA-AEEA-εLys-εLys-Ahx-Hexadecanoyl(16-SO3H)])QAAREFIK([AEEA-AEEA-AEEA-AEEA-AEEA-εLys-εLys-Ahx-Hexadecanoyl(16-SO3H)])WLVRGRG
notes: Full chemical name printed at h-0090
B15: GLP-1 derivative of Example 5: N{Epsilon-18}, N{Epsilon-27}, N{Epsilon-37}-triacylated [Aib8,Lys18,Glu22,Arg26,Lys27,Arg34,Lys37]-GLP-1-(7-37)-peptide (peptide)
peptide: H[Aib]EGTFTSDVSK([AEEA-AEEA-γGlu-C18 diacid])YLEEQAARK([AEEA-AEEA-γGlu-C18 diacid])FIAWLVRGRK([AEEA-AEEA-γGlu-C18 diacid])
notes: Full chemical name printed at h-0060
B16: GLP-1 derivative of Example 10: N{Epsilon-27}, N{Epsilon-30}, N{Epsilon-37}-triacylated [Aib8,Glu22,Arg26,Lys27,Lys30,Arg34,Lys37]-GLP-1-(7-37)-peptide (peptide)
peptide: H[Aib]EGTFTSDVSSYLEEQAARK([AEEA-AEEA-γGlu-C18 diacid])FIK([AEEA-AEEA-γGlu-C18 diacid])WLVRGRK([AEEA-AEEA-γGlu-C18 diacid])
notes: Full chemical name printed at h-0070
B17: GLP-1 derivative of Example 11: N{Epsilon-26}, N{Epsilon-30}, N{Epsilon-37}-triacylated [Aib8,Glu22,Lys30,Arg34,Lys37]-GLP-1-(7-37)-peptide (peptide)
peptide: H[Aib]EGTFTSDVSSYLEEQAAK([εLys-AEEA-AEEA-γGlu-C18 diacid])EFIK([εLys-AEEA-AEEA-γGlu-C18 diacid])WLVRGRK([εLys-AEEA-AEEA-γGlu-C18 diacid])
notes: Full chemical name printed at h-0072
B18: GLP-1 derivative of Example 12: N{Epsilon-26}, N{Epsilon-30}, N{Epsilon-37}-triacylated [Aib8,Glu22,Lys30,Arg34,Lys37]-GLP-1-(7-37)-peptide (peptide)
peptide: H[Aib]EGTFTSDVSSYLEEQAAK([εLys-AEEA-AEEA-Cya-Hexadecanoyl(16-SO3H)])EFIK([εLys-AEEA-AEEA-Cya-Hexadecanoyl(16-SO3H)])WLVRGRK([εLys-AEEA-AEEA-Cya-Hexadecanoyl(16-SO3H)])
notes: Full chemical name printed at h-0074
B19: GLP-1 derivative of Example 9: N{Epsilon-18}, N{Epsilon-27}, N{Epsilon-37}-triacylated [Aib8,Lys18,Arg26,Lys27,Arg34,Lys37]-GLP-1-(7-37)-peptide (peptide)
peptide: H[Aib]EGTFTSDVSK([Ser-Ser-Ser-Ser-Ser-Ser-γGlu-C18 diacid])YLEGQAARK([Ser-Ser-Ser-Ser-Ser-Ser-γGlu-C18 diacid])FIAWLVRGRK([Ser-Ser-Ser-Ser-Ser-Ser-γGlu-C18 diacid])
notes: Full chemical name printed at h-0068

What follows are binders tested against T1, human GLP-1 receptor (human, UniProt P43220 24-463) (assay: cell-based or functional assay).

| Binder | In vitro potency EC50 (CRE luciferase reporter gene assay, BHK cells) [nM] |
| --- | --- |
| B1 | 0.014 |
| B2 | 0.015 |
| B3 | 0.02 |
| B4 | 0.018 |
| B5 | 0.067 |
| B6 | 0.116 |
| B7 | 0.018 |
| B8 | 0.019 |
| B9 | 0.026 |
| B10 | 0.076 |
| B11 | 0.082 |
| B12 | 0.012 |
| B13 | 0.014 |
| B14 | 0.027 |
| B15 | 0.04 |
| B16 | 0.026 |
| B17 | 0.085 |
| B18 | 0.099 |
| B19 | 0.067 |

Each binder was assayed against T1, human GLP-1 receptor (assay: competitive SPA binding, displacement of 125I-GLP-1(7-36)NH2 from BHK membranes with human GLP-1R, high HSA (2.0%)).
Description: (§1) For the receptor binding assay in the presence of low HSA (0.005%) 50 μl of the assay buffer was added to each well of an assay plate. Assay continued with step 3. […] For the receptor binding assay in the presence of high HSA (2%) 50 μl of the 8% albumin stock was added to each well of an assay plate. Assay continued with step 3. […] Cell membrane aliquots were thawed and diluted to their working concentration. Fifty μl were added to each well in the assay plate. […] WGA SPA beads were suspended in assay buffer at 20 mg/ml. The suspension was diluted to 10 mg/ml in assay buffer just prior to addition to the assay plate. Fifty μl were added to each well in the assay plate. […] A 25 μl aliquot was reserved for measuring total counts/well. […] The assay plate was incubated for 2 h at 30° C. […] The assay plate was centrifuged for 10 min. […] The assay plate was read in a Packard TopCount NXT instrument.

| Binder | IC50 [nM] |
| --- | --- |
| B1 | 351 |
| B2 | 96 |
| B3 | 290 |
| B4 | 100 |
| B5 | 289 |
| B6 | 19 |
| B7 | 143 |
| B8 | 49 |
| B9 | 84 |
| B10 | > 1000 |
| B11 | 426 |
| B12 | > 1000 |
| B13 | 381 |
| B14 | 100 |
| B15 | > 1000 |
| B16 | 188 |
| B17 | > 1000 |
| B18 | 214 |
| B19 | > 1000 |

What follows are binders tested against T1, human GLP-1 receptor (assay: competitive SPA binding, displacement of 125I-GLP-1(7-36)NH2 from BHK membranes with human GLP-1R, low HSA (max. 0.001%)).
Description: as §1

| Binder | IC50 [nM] |
| --- | --- |
| B1 | 1.6 |
| B2 | 0.24 |
| B3 | 1.4 |
| B4 | 0.19 |
| B5 | 2.3 |
| B6 | 0.1 |
| B7 | 0.08 |
| B8 | 0.15 |
| B9 | 0.23 |
| B10 | 0.7 |
| B11 | 11 |
| B12 | 0.4 |
| B13 | 0.4 |
| B14 | 0.36 |
| B15 | 0.6 |
| B16 | 0.82 |
| B17 | 8.7 |
| B18 | 5 |
